Assay results: PMC6930080

Molecular target: ATP synthase subunit α (Euglena gracilis)
Experiment: cryo-EM structure; native ATP synthase dimer with bound IF1, co-purified as one complex from E. gracilis mitochondria; 25 mM HEPES/KOH pH 7.5, 25 mM KCl, 15 mM MgOAc2, 2 mM DTT, 0.05% β-DDM; maps: membrane region 2.82 Å, F1/c-ring rotational states 1-3 3.04, 3.14 and 3.92 Å, rotor 3.3 Å, peripheral stalk tip 3.82 Å, consensus dimer 4.32 Å

percent of particles of rotational state 3 that contain IF1: 34%
Substance: ATPase inhibitory factor 1 (IF1) (natural protein)
